Experimental findings from patent US20240294593A1 (Genentech, published 2024) are described below.

In general, Kd refers to the free concentration of one partner at which half of the binding sites on the other are occupied at equilibrium, for simple one-to-one binding. By koff is commonly meant a measure of how fast the partners let go of each other. A high value points to fast dissociation. Usually kon stands for the rate constant with which the complex forms. Read a low kon as slow association.

B1: H1_L1.65 (antibody, V domains shown)
VH: EVQLVESGGGLVQPGGSLRLSCAASGFTFSSFGMHWVRQAPGKGLEWVSYISSGSSIIYYADSVKGRFTISRDNAKNSLYLQMNSLRAEDTAVYYCARGGRLVWSPDYWGQGTLVTVSS
VL: DIVMTQSPDSLAVSLGERATINCKSSQSLLNSGNQKNYLAWYQQKPGQPPKLLIYWASTRESGVPDRFTGSGSGTDFTLTISSLQAEDVAVYYCQNDYSYPFTFGSGTKLEIKR
notes: also called VL-T40A; Kabat 34
B2: H1_L1.67 (antibody, V domains shown)
VH: EVQLVESGGGLVQPGGSLRLSCAASGFTFSSFGMHWVRQAPGKGLEWVSYISSGSSIIYYADSVKGRFTISRDNAKNSLYLQMNSLRAEDTAVYYCARGGRLVWSPDYWGQGTLVTVSS
VL: DIVMTQSPDSLAVSLGERATINCKSSQSLLNSGNQKNYLTWYQQKPGQPPKLLIYLASTRESGVPDRFTGSGSGTDFTLTISSLQAEDVAVYYCQNDYSYPFTFGSGTKLEIKR
notes: also called VL-W56L; Kabat 50
B3: H1_L1.66 (antibody, V domains shown)
VH: EVQLVESGGGLVQPGGSLRLSCAASGFTFSSFGMHWVRQAPGKGLEWVSYISSGSSIIYYADSVKGRFTISRDNAKNSLYLQMNSLRAEDTAVYYCARGGRLVWSPDYWGQGTLVTVSS
VL: DIVMTQSPDSLAVSLGERATINCKSSQSLLNSGNQKNYLTWYQQKPGQPPKLLIYFASTRESGVPDRFTGSGSGTDFTLTISSLQAEDVAVYYCQNDYSYPFTFGSGTKLEIKR
notes: also called VL-W56F; Kabat 50
B4: H1_L1.41 (antibody, V domains shown)
VH: EVQLVESGGGLVQPGGSLRLSCAASGFTFSSFGMHWVRQAPGKGLEWVSYISSGSSIIYYADSVKGRFTISRDNAKNSLYLQMNSLRAEDTAVYYCARGGRLVWSPDYWGQGTLVTVSS
VL: DIVMTQSPDSLAVSLGERATINCKSSQSLLNSGNQHNYLTWYQQKPGQPPKLLIYWASTRESGVPDRFTGSGSGTDFTLTISSLQAEDVAVYYCQNDYSYPFTFGSGTKLEIKR
notes: also called VL-K36H; Kabat 30
B5: H1_L1.42 (antibody, V domains shown)
VH: EVQLVESGGGLVQPGGSLRLSCAASGFTFSSFGMHWVRQAPGKGLEWVSYISSGSSIIYYADSVKGRFTISRDNAKNSLYLQMNSLRAEDTAVYYCARGGRLVWSPDYWGQGTLVTVSS
VL: DIVMTQSPDSLAVSLGERATINCKSSQSLLNSGNQDNYLTWYQQKPGQPPKLLIYWASTRESGVPDRFTGSGSGTDFTLTISSLQAEDVAVYYCQNDYSYPFTFGSGTKLEIKR
notes: also called VL-K36D; Kabat 30
B6: H1_L1.45 (antibody, human IgG1, kappa, V domains shown)
VH: EVQLVESGGGLVQPGGSLRLSCAASGFTFSSFGMHWVRQAPGKGLEWVSYISSGSSIIYYADSVKGRFTISRDNAKNSLYLQMNSLRAEDTAVYYCARGGRLVWSPDYWGQGTLVTVSS
VL: DIVMTQSPDSLAVSLGERATINCKSSQSLLNSGNQYNYLTWYQQKPGQPPKLLIYWASTRESGVPDRFTGSGSGTDFTLTISSLQAEDVAVYYCQNDYSYPFTFGSGTKLEIKR
notes: also called VL-K36Y; Kabat 30
B7: H1_L1.43 (antibody, V domains shown)
VH: EVQLVESGGGLVQPGGSLRLSCAASGFTFSSFGMHWVRQAPGKGLEWVSYISSGSSIIYYADSVKGRFTISRDNAKNSLYLQMNSLRAEDTAVYYCARGGRLVWSPDYWGQGTLVTVSS
VL: DIVMTQSPDSLAVSLGERATINCKSSQSLLNSGNQANYLTWYQQKPGQPPKLLIYWASTRESGVPDRFTGSGSGTDFTLTISSLQAEDVAVYYCQNDYSYPFTFGSGTKLEIKR
notes: also called VL-K36A; Kabat 30
B8: H1_L1.49 (antibody, V domains shown)
VH: EVQLVESGGGLVQPGGSLRLSCAASGFTFSSFGMHWVRQAPGKGLEWVSYISSGSSIIYYADSVKGRFTISRDNAKNSLYLQMNSLRAEDTAVYYCARGGRLVWSPDYWGQGTLVTVSS
VL: DIVMTQSPDSLAVSLGERATINCKSSQSLLNSGNQKEYLTWYQQKPGQPPKLLIYWASTRESGVPDRFTGSGSGTDFTLTISSLQAEDVAVYYCQNDYSYPFTFGSGTKLEIKR
notes: also called VL-N37E; Kabat 31
B9: H1_L1.48 (antibody, V domains shown)
VH: EVQLVESGGGLVQPGGSLRLSCAASGFTFSSFGMHWVRQAPGKGLEWVSYISSGSSIIYYADSVKGRFTISRDNAKNSLYLQMNSLRAEDTAVYYCARGGRLVWSPDYWGQGTLVTVSS
VL: DIVMTQSPDSLAVSLGERATINCKSSQSLLNSGNQKHYLTWYQQKPGQPPKLLIYWASTRESGVPDRFTGSGSGTDFTLTISSLQAEDVAVYYCQNDYSYPFTFGSGTKLEIKR
notes: also called VL-N37H; Kabat 31
B10: H1_L1.44 (antibody, V domains shown)
VH: EVQLVESGGGLVQPGGSLRLSCAASGFTFSSFGMHWVRQAPGKGLEWVSYISSGSSIIYYADSVKGRFTISRDNAKNSLYLQMNSLRAEDTAVYYCARGGRLVWSPDYWGQGTLVTVSS
VL: DIVMTQSPDSLAVSLGERATINCKSSQSLLNSGNQGNYLTWYQQKPGQPPKLLIYWASTRESGVPDRFTGSGSGTDFTLTISSLQAEDVAVYYCQNDYSYPFTFGSGTKLEIKR
notes: also called VL-K36G; Kabat 30
B11: H1_L1.50 (antibody, V domains shown)
VH: EVQLVESGGGLVQPGGSLRLSCAASGFTFSSFGMHWVRQAPGKGLEWVSYISSGSSIIYYADSVKGRFTISRDNAKNSLYLQMNSLRAEDTAVYYCARGGRLVWSPDYWGQGTLVTVSS
VL: DIVMTQSPDSLAVSLGERATINCKSSQSLLNSGNQKSYLTWYQQKPGQPPKLLIYWASTRESGVPDRFTGSGSGTDFTLTISSLQAEDVAVYYCQNDYSYPFTFGSGTKLEIKR
notes: also called VL-N37S; Kabat 31
B12: H1_L1.47 (antibody, V domains shown)
VH: EVQLVESGGGLVQPGGSLRLSCAASGFTFSSFGMHWVRQAPGKGLEWVSYISSGSSIIYYADSVKGRFTISRDNAKNSLYLQMNSLRAEDTAVYYCARGGRLVWSPDYWGQGTLVTVSS
VL: DIVMTQSPDSLAVSLGERATINCKSSQSLLNSGNQKDYLTWYQQKPGQPPKLLIYWASTRESGVPDRFTGSGSGTDFTLTISSLQAEDVAVYYCQNDYSYPFTFGSGTKLEIKR
notes: also called VL-N37D; Kabat 31
B13: H1_L1.46 (antibody, V domains shown)
VH: EVQLVESGGGLVQPGGSLRLSCAASGFTFSSFGMHWVRQAPGKGLEWVSYISSGSSIIYYADSVKGRFTISRDNAKNSLYLQMNSLRAEDTAVYYCARGGRLVWSPDYWGQGTLVTVSS
VL: DIVMTQSPDSLAVSLGERATINCKSSQSLLNSGNQINYLTWYQQKPGQPPKLLIYWASTRESGVPDRFTGSGSGTDFTLTISSLQAEDVAVYYCQNDYSYPFTFGSGTKLEIKR
notes: also called VL-K36I; Kabat 30

T1 sequence (Q15116 25-167 limits assumed): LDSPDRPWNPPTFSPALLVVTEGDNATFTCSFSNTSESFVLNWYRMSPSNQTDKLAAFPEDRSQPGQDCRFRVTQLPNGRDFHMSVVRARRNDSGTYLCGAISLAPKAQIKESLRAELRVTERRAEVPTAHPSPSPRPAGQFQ

One assay addresses T1, human PD-1-His (human, UniProt Q15116 25-167, limits assumed).
T1 construct: Antigen of the Octet assays; not shown: His tag
Put plainly: Octet [D00120 Figure 65H]. From the text:
In particular, anti-human IgG-Fc (AHC) biosensors were used to capture the test articles and dipped into multiple concentrations of PD-1.
(In general: In BLI a coated tip is dipped into the sample, and binding shifts an interference pattern.)
B1: the Kd is 98 nM, the koff was 0.00949 s⁻¹ and the kon is 96800 M⁻¹ s⁻¹.
The matching figures for B2: 41.6 nM, 0.00418 s⁻¹ and 100000 M⁻¹ s⁻¹.
In the case of B3, the affinity, expressed as Kd, was 35.3 nM; the koff came to 0.00339 s⁻¹; the kon is 96200 M⁻¹ s⁻¹.

The next assay deals with T1, human PD-1-His. Put plainly: Octet.
Molecule B4 registered a Kd of 39.7 nM, a koff of 0.00508 s⁻¹ and a kon of 128000 M⁻¹ s⁻¹.
B5 yielded a Kd of 36.5 nM, a koff of 0.0049 s⁻¹ and an on-rate constant (kon) of 134000 M⁻¹ s⁻¹.
B6 showed a Kd of 8.6 nM, a koff of 0.00135 s⁻¹ and a kon of 157000 M⁻¹ s⁻¹.
Consider B7, for which binding was characterised by a dissociation constant (Kd) of 39.8 nM, the koff is 0.00546 s⁻¹ and the kon came to 137000 M⁻¹ s⁻¹.
Molecule B8 yielded a Kd of 61.1 nM, a koff of 0.00697 s⁻¹ and a kon of 114000 M⁻¹ s⁻¹.
In turn, B9 showed a Kd of 80.1 nM, a koff of 0.00785 s⁻¹ and an on-rate constant (kon) of 98000 M⁻¹ s⁻¹.
The matching figures for B10: 19.9 nM, 0.00291 s⁻¹ and 146000 M⁻¹ s⁻¹.
The molecule B11 showed a Kd of 42.1 nM, a koff of 0.00409 s⁻¹ and a kon of 97100 M⁻¹ s⁻¹.
Take B12: the Kd is 23.8 nM, the koff worked out at 0.00353 s⁻¹ and the kon was 149000 M⁻¹ s⁻¹.
B13 yielded a Kd of 26.4 nM, a koff of 0.00324 s⁻¹ and a kon of 123000 M⁻¹ s⁻¹.
